Patent US20260022175A1 (Chugai, published 2026)

What was measured:
[1] = target: T1, human FcγRIIIa F allotype extracellular domain with C-terminal His-tag (human, UniProt P08637 17-208); test: SPR Biacore T200, captured Ab, pH 7.4
T1 construct: extracellular domain; also called hFcγR IIIa F

[2] = target: T2, human FcγRIIa H allotype extracellular domain with C-terminal His-tag (human, UniProt P12318 34-217); test: SPR Biacore T200, captured Ab, pH 7.4
T2 construct: extracellular domain; also called hFcγR IIa H
T2 sequence (looked up): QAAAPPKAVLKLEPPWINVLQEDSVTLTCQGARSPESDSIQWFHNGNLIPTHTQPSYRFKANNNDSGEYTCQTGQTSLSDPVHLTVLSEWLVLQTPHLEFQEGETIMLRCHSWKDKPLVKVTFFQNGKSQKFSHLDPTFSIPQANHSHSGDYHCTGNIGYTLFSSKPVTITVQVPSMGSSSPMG

[3] = target: T3, human FcγRIa extracellular domain with C-terminal His-tag (human, UniProt P12314 16-292); test: SPR Biacore T200, captured Ab, pH 7.4
T3 construct: extracellular domain; also called hFcγR Ia; hFcγRIa
T3 sequence (P12314 16-292): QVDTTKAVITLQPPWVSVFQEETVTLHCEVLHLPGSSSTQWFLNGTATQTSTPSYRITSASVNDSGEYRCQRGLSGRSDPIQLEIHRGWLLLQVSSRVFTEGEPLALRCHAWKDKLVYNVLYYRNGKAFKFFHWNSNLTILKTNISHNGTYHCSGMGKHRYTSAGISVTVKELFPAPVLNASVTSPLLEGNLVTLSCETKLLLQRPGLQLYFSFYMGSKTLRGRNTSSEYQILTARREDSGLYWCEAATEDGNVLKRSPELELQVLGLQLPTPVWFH

[4] = target: T4, human FcγRIIa R allotype extracellular domain with C-terminal His-tag (human, UniProt P12318 34-217); test: SPR Biacore T200, captured Ab, pH 7.4
T4 construct: extracellular domain; also called hFcγR IIa R
T4 sequence (looked up): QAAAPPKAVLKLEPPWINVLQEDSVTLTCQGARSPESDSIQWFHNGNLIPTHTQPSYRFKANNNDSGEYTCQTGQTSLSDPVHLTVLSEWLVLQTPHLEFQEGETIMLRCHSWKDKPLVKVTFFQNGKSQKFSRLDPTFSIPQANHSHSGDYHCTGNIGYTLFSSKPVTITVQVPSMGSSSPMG

human FcRn [5] = target: T5, human FcRn (human, UniProt P55899 24-290; P61769 21-119); test: SPR Biacore T200, captured Ab, pH 6.0, steady state
T5 construct: Prepared by the method of WO 2010/107110; also called hFcRn
T5 sequence (P55899 24-290 limits assumed, chain 1 of 2): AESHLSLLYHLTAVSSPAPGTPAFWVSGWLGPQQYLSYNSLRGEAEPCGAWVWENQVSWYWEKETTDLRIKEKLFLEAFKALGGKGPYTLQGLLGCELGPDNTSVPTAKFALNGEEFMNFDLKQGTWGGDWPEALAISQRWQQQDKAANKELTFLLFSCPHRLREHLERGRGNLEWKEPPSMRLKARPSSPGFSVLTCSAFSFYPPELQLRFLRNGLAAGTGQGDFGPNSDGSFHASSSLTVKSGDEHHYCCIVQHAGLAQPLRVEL
T5 sequence (P61769 21-119 limits assumed, chain 2 of 2): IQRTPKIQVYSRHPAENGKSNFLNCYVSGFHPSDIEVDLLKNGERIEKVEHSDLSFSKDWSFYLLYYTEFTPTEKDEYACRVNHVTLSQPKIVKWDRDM

[6] = target: T6, human FcγRIIb extracellular domain with C-terminal His-tag (human, UniProt P31994 43-217); test: SPR; binding amount divided by that of 04H1389-G1m/04L1305-k0MT
T6 construct: extracellular domain; also called hFcγR IIb
T6 sequence (looked up): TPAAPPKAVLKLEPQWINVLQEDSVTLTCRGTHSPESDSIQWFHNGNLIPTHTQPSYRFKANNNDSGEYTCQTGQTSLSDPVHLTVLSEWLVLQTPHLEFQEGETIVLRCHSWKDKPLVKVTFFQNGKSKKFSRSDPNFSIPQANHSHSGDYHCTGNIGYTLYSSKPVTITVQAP

[7] = target: T6, human FcγRIIb extracellular domain with …; test: SPR; FcγRIIb bound amount per unit captured Ab
[8] = target: T7, human FcγRIIIa V allotype extracellular domain with C-terminal His-tag (human, UniProt P08637 17-208); test: SPR Biacore T200, captured Ab, pH 7.4, steady state model
T7 construct: extracellular domain; also called hFcγR IIIa V
T7 sequence (P08637 17-208 F176V): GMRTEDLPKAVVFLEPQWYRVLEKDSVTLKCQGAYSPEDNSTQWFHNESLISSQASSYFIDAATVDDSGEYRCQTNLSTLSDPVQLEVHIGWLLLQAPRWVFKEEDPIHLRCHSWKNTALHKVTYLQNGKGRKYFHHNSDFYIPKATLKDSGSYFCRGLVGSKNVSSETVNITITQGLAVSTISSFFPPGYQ

[9] = target: T1, human FcγRIIIa F allotype extracellular …; test: SPR; KD of 04H1389-G1m/04L1305-k0MT divided by KD of variant
[10] = target: T2, human FcγRIIa H allotype extracellular …; test: as above
human FcRn [11] = target: T5, human FcRn; test: as above
[12] = target: T3, human FcγRIa extracellular domain with …; test: as above
[13] = target: T7, human FcγRIIIa V allotype extracellular …; test: as above
[14] = target: T4, human FcγRIIa R allotype extracellular …; test: as above

T1 sequence (P08637 17-208): as the sequence (P08637 17-208 F176V) above, with V160F counted along it

B1: 04H1389-G1m/04L1305-k0MT (antibody, human IgG1, kappa)
heavy: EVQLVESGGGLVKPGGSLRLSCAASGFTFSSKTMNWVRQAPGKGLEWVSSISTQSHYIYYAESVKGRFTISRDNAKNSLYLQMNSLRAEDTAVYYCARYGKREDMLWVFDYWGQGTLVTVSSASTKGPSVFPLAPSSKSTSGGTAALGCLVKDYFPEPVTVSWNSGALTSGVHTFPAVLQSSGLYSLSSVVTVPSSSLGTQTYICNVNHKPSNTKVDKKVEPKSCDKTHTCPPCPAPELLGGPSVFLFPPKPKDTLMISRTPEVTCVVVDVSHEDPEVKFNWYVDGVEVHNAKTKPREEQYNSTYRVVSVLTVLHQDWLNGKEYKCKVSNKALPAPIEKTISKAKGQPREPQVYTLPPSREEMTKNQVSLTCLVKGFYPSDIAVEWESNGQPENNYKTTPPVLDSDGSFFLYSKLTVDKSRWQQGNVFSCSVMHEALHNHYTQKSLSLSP
light: DIVMTQSPLSLPVTPGEPASISCDGPSTGVGDYNYVHWYQQKPGQAPRLLIYFTSKKPSGVPDRFSGSGSGTDFTLKISRVEAEDVGVYYCQTYAAPLGPMFGQGTKLEIKRTVAAPSVFIFPPSDEQLKSGTASVVCLLNNFYPREAKVQWKVDNALQSGNSQESVTEQDSKDSTYSLSSTLTLSKADYEKHKVYACEVTHQGLSSPVTKSFNRGEC
Question: For B1, which Kd [1] is on record?
Answer: 690 nM

Question: What about the Kd [2] of the same binder?
Answer: 1100 nM

Question: What about the Kd [3] of the same binder?
Answer: 0.069 nM

Question: And the Kd [4]?
Answer: 1600 nM

Question: And the Kd (human FcRn [5])?
Answer: 1000 nM

Question: What about the Relative binding amount [6] of the same binder?
Answer: 1

Question: And the Binding amount [7]?
Answer: 0.011

Question: And the Kd [8]?
Answer: 880 nM

Question: And the “Relative value to KD between G1m and hFcγRs” value [9]?
Answer: 1

Question: And the “Relative value to KD between G1m and hFcγRs” value [10]?
Answer: 1

Question: What about the “Relative value to KD between G1m and hFcRn” value (human FcRn [11]) of the same binder?
Answer: 1

Question: What about the “Relative value to KD between G1m and hFcγRs” value [12] of the same binder?
Answer: 1

Question: And the “Relative value to KD between G1m and hFcγRs” value [13]?
Answer: 1

Question: And the “Relative value to KD between G1m and hFcγRs” value [14]?
Answer: 1
